From article PMC3335792

Biological target: E. coli β-clamp labeled with OregonGreen488 (E. coli β-clamp^OG) (E. coli), P0A988
Experiment: other fluorescence titration; OregonGreen488-labeled β-clamp (50 or 100 nM in the methods, 90 nM in the legend) titrated with the partner protein; 20 mM Tris-Cl pH 7.5, 8 mM MgCl2, 1 mM DTT, 0.2 mM EDTA, 50 mM NaCl, 0.5 mM ATP, 22°C; emission at 510 nm; apparent Kd
Conditions: remark: other sources report otherwise

Chain of E. coli β-clamp labeled with OregonGreen488 (E. coli β-clamp^OG) (E. coli), P0A988 (P0A988 whole entry): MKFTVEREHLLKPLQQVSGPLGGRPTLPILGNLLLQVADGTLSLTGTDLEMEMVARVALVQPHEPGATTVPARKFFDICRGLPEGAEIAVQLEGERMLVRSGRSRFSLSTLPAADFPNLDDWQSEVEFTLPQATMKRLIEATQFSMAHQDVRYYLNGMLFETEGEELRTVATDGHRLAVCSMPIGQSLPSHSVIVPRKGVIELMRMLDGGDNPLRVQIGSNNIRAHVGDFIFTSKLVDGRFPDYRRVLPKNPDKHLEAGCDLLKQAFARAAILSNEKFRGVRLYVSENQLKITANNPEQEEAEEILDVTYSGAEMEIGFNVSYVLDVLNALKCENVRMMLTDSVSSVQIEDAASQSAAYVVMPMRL

Kd: 42.5 nM
B1: E. coli NAD+-dependent DNA ligase (E. coli LigA), P15042 1-671 (enzyme)
chain: MESIEQQLTELRTTLRHHEYLYHVMDAPEIPDAEYDRLMRELRELETKHPELITPDSPTQRVGAAPLAAFSQIRHEVPMLSLDNVFDEESFLAFNKRVQDRLKNNEKVTWCCELKLDGLAVSILYENGVLVSAATRGDGTTGEDITSNVRTIRAIPLKLHGENIPARLEVRGEVFLPQAGFEKINEDARRTGGKVFANPRNAAAGSLRQLDPRITAKRPLTFFCYGVGVLEGGELPDTHLGRLLQFKKWGLPVSDRVTLCESAEEVLAFYHKVEEDRPTLGFDIDGVVIKVNSLAQQEQLGFVARAPRWAVAFKFPAQEQMTFVRDVEFQVGRTGAITPVARLEPVHVAGVLVSNATLHNADEIERLGLRIGDKVVIRRAGDVIPQVVNVVLSERPEDTREVVFPTHCPVCGSDVERVEGEAVARCTGGLICGAQRKESLKHFVSRRAMDVDGMGDKIIDQLVEKEYVHTPADLFKLTAGKLTGLERMGPKSAQNVVNALEKAKETTFARFLYALGIREVGEATAAGLAAYFGTLEALEAASIEELQKVPDVGIVVASHVHNFFAEESNRNVISELLAEGVHWPAPIVINAEEIDSPFAGKTVVLTGSLSQMSRDDAKARLVELGAKVAGSVSKKTDLVIAGEAAGSKLAKAQELGIEVIDEAEMLRLLGS
modifications: here or on the partner: OregonGreen488 label (residue not stated)
